Four molecules from paper PMC8661717 (Protein Science : A Publication of the Protein Society, 2021) can be followed below.

Holding throughout (settings): both partners purified
Test [1] deals with T1, Full-length human primosome (DNA polymerase α–primase complex) (human, UniProt P09884 1-1462; Q14181 1-598; P49642 1-420; P49643 1-509).
T1 construct: also called Pol α–primase; full-length primosome
Put plainly: pull-down.

For test [2], the target named is T2, Truncated human primosome (Pol α 334-1462; B subunit 149-598; PriS 1-420; PriL 1-509) (human, UniProt P09884 334-1462; Q14181 149-598; P49642 1-420; P49643 1-509).
T2 construct: also called truncated primosome; Pol α–primase
Description: pull-down.

Test [3] has as its target T2, Truncated human primosome (Pol α …). Put plainly: cryo-EM structure.
The target of test [4] is T3, Pol α catalytic subunit (334-1462), as subunit of the truncated human primosome (human, UniProt P09884 334-1462).
T3 construct: also called DNA polymerase α; catalytic subunit of Pol α
T3 sequence (looked up): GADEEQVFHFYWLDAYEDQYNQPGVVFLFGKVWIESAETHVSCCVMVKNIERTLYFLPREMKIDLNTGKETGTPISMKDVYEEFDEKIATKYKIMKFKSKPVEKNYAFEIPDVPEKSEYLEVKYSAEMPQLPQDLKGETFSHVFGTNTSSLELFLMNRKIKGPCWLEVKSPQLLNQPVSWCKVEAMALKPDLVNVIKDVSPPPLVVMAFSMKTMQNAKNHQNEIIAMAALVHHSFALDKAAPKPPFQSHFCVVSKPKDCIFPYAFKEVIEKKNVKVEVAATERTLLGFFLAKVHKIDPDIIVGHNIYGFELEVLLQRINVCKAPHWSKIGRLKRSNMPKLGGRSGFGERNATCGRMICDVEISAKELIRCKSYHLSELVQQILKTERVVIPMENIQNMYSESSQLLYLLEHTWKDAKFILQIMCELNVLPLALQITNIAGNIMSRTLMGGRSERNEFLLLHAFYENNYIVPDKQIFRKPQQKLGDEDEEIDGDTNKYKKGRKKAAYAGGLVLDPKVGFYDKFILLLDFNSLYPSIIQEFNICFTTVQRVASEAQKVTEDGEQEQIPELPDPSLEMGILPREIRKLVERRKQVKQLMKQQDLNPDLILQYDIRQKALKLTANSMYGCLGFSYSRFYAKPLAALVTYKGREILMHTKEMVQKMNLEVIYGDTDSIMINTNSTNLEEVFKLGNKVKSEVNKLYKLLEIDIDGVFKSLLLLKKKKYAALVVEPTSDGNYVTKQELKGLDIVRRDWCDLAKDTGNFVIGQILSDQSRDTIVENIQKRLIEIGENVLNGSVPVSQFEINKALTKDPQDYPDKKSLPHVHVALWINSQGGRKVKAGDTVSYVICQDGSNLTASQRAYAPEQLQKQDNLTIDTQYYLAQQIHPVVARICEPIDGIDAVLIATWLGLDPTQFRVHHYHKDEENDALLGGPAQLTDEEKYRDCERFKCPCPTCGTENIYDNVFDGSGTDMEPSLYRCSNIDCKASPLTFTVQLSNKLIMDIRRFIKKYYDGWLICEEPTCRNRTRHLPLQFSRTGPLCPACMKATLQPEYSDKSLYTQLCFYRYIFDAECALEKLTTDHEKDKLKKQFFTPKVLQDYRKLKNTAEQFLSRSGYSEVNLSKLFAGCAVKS
Description: cryo-EM structure.

T2 sequence (Q14181 149-598, chain 2 of 3): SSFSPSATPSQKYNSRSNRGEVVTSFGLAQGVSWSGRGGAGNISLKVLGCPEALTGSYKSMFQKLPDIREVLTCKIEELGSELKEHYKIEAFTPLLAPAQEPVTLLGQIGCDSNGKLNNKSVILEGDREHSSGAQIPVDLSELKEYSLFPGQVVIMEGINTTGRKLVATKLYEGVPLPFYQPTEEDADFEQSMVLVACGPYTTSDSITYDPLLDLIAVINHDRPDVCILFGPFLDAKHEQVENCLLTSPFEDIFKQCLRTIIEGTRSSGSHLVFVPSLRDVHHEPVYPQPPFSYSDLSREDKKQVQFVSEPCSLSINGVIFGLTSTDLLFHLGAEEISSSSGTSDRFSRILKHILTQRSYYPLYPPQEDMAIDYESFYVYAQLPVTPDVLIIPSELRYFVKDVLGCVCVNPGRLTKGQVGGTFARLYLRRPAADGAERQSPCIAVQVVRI
T2 sequence (P49642 whole entry, chain 3 of 3, the tested form may be a part): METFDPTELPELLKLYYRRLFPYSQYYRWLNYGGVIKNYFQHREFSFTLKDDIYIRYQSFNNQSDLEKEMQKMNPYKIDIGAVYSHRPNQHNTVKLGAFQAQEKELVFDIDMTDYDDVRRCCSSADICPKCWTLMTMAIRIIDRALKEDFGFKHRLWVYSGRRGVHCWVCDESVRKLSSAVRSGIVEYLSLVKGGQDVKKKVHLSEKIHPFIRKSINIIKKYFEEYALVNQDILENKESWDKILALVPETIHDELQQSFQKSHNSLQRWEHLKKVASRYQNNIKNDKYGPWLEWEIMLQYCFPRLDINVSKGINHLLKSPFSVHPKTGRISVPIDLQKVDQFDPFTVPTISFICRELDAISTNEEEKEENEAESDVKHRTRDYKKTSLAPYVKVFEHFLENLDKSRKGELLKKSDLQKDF
T2 sequence (P49643 whole entry, chain 4 of 3, the tested form may be a part): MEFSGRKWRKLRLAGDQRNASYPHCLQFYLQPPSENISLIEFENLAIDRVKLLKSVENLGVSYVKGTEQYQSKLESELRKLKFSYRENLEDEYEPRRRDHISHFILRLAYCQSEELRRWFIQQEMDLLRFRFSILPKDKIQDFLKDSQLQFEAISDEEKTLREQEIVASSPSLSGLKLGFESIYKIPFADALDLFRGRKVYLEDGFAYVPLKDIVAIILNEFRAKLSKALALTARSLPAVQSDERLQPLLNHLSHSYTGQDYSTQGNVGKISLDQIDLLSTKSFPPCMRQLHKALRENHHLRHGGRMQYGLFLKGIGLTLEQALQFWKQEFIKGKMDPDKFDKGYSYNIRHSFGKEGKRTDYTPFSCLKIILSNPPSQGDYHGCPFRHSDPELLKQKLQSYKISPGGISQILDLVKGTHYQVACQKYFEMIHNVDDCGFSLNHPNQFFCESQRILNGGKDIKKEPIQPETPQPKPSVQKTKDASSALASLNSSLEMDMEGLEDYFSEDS
T1 sequence (Q14181 whole entry, chain 2 of 3): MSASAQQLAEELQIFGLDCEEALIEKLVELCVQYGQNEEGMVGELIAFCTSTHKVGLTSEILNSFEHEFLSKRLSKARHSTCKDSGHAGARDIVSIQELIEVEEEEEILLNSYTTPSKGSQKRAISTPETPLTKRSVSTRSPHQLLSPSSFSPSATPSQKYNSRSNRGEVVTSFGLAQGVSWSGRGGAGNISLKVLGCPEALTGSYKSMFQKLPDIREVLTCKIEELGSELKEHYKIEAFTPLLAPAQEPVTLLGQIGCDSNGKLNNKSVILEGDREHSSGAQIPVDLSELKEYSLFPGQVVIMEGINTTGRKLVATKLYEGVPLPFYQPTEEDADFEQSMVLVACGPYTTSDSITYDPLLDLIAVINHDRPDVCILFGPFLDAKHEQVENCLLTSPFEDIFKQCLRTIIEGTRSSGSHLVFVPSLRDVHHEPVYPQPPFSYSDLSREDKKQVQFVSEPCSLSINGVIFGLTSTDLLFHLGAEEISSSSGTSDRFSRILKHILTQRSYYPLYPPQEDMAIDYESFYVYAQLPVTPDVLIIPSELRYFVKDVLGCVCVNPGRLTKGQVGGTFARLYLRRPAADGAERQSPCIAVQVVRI
T1 sequence (P49642 whole entry, chain 3 of 3): as the sequence (P49642 whole entry, chain 3 of 3, the tested form may be a part) above
T1 sequence (P49643 whole entry, chain 4 of 3): as the sequence (P49643 whole entry, chain 4 of 3, the tested form may be a part) above

B1: His6-MBP-tagged SARS-CoV nonstructural protein 1 (nsp1), full length (natural protein)
chain: MESLVLGVNEKTHVQLSLPVLQVRDVLVRGFGDSVEEALSEAREHLKNGTCGLVELEKGVLPQLEQPYVFIKRSDALSTNHGHKVVELVAEMDGIQYGRSGITLGVLVPHVGETPIAYRNVLLRKNGNKGAGGHSYGIDLKSYDLGDELGTDPIEDYEQNWNTKHGSGALRELTRELNGG
For B1, the binding result in test [1] and in test [2] was “binds” throughout.

B2: SARS-CoV nsp1 (13-127), His6-MBP tag cleaved (domain or fragment)
chain: HVQLSLPVLQVRDVLVRGFGDSVEEALSEAREHLKNGTCGLVELEKGVLPQLEQPYVFIKRSDALSTNHGHKVVELVAEMDGIQYGRSGITLGVLVPHVGETPIAYRNVLLRKNG
For B2, the binding result in test [3] and in test [4] was “binds” each time.

B3: His6-MBP-tagged SARS-CoV nsp1 middle domain (13-127) (domain or fragment)
chain: HVQLSLPVLQVRDVLVRGFGDSVEEALSEAREHLKNGTCGLVELEKGVLPQLEQPYVFIKRSDALSTNHGHKVVELVAEMDGIQYGRSGITLGVLVPHVGETPIAYRNVLLRKNG
Take B3: the binding result in test [2] is recorded as “binds”.

B4: His6-MBP-tagged SARS-CoV-2 nsp1 middle domain (13-127) (domain or fragment)
chain: HVQLSLPVLQVRDVLVRGFGDSVEEVLSEARQHLKDGTCGLVEVEKGVLPQLEQPYVFIKRSDARTAPHGHVMVELVAELEGIQYGRSGETLGVLVPHVGEIPVAYRKVLLRKNG
B4: the binding result in test [2] is given as “binds”.
